Key:
[1] = target: T1, human CTLA4 on cells (CHO-K1/hCTLA4; HEK293/hCTLA4; 293F-hCTLA4) (human, UniProt P16410 36-223); assay: cell-based or functional assay
[2] = target: T2, human CTLA4-His protein (ACRO Biosystems, #CT4-H5229) (human, UniProt P16410 36-161); assay: ELISA, coated hCTLA4-His
T2 construct: extracellular domain; bought; also called hCTLA4-His; human CTLA4 extracellular domain recombinant protein

[3] = target: T3, human PD-L1-His protein (ACRO Biosystems, #PD1-H5229) (human, UniProt Q9NZQ7 19-238); assay: ELISA, coated hPD-L1-His
T3 construct: extracellular domain; bought; also called hPDL1-His; human PD-L1 extracellular domain recombinant protein
T3 sequence (Q9NZQ7 19-238): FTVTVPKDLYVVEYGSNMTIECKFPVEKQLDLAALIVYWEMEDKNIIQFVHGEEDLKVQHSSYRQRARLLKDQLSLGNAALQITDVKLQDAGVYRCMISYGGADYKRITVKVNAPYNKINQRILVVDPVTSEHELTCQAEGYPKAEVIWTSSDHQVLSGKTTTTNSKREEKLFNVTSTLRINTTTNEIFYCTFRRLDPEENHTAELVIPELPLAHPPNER

[4] = target: T1, human CTLA4 on cells (CHO-K1/hCTLA4; …); assay: FACS, CHO-K1/hCTLA4 cells (Test 1)
[5] = target: T4, human PD-L1 on cells (CHO-K1/hPDL1; MDA-MB-231) (human, UniProt Q9NZQ7 19-290); assay: FACS, CHO-K1/hPDL1 cells (Experiment 1)
T4 construct: whole, on cells
T4 sequence (Q9NZQ7 19-290): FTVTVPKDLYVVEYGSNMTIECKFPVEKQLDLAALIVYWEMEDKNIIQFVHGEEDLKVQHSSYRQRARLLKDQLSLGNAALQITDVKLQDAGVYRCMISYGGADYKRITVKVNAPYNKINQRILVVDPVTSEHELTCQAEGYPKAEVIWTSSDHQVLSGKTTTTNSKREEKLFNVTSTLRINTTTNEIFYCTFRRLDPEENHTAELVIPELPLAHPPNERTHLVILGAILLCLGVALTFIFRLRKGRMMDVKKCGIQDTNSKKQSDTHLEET

[6] = target: T5, biotinylated human CTLA4-Fc protein (ACRO Biosystems, #CT4-H82F3) (human, UniProt P16410 36-161, biotinylated); assay: competition ELISA: biotinylated hCTLA4-Fc to coated B7-1-Fc
T5 construct: bought; also called human CTLA4 protein
T5 sequence (P16410 36-161 limits assumed): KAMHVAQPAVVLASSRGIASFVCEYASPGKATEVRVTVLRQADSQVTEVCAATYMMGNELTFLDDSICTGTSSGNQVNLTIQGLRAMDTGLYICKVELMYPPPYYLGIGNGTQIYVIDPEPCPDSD

[7] = target: T1, human CTLA4 on cells (CHO-K1/hCTLA4; …); assay: competition FACS: biotinylated B7-1-Fc to CHO-K1/hCTLA4 cells (Test 1)
[8] = target: T4, human PD-L1 on cells (CHO-K1/hPDL1; …); assay: competition FACS: biotinylated PD-1 to CHO-K1/hPDL1 cells (Experiment 1)
[9] = target: T4, human PD-L1 on cells (CHO-K1/hPDL1; …); assay: FACS, MDA-MB-231 cells
[10] = target: T6, human BCMA (human, UniProt Q02223 1-184); assay: cell-based or functional assay
T6 sequence (looked up): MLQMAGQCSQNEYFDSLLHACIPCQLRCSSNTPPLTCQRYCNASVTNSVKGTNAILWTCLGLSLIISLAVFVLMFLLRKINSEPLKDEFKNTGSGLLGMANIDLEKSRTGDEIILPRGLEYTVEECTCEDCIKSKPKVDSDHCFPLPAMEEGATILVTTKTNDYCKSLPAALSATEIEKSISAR

[11] = target: T6, human BCMA; assay: flow cytometry, NCI-H929 cells
[12] = target: T6, human BCMA; assay: flow cytometry, HEK293T/hBCMA cells
[13] = target: T7, cynomolgus monkey BCMA (cynomolgus monkey); assay: flow cytometry, HEK293T/cyno BCMA cells
T7 construct: whole, on cells; also called cyno BCMA; HEK293T/cyno BCMA cells

[14] = target: T8, biotinylated human BCMA-Fc, Avitag recombinant protein (ACRO Biosystems, #BC7-H82F0) (human, UniProt Q02223 1-54, biotinylated); assay: BLI (Octet Red96e), biotinylated BCMA-Fc on SA sensor, antibody in solution, 1:1 global fit
T8 construct: extracellular domain; Bought protein; also called human BCMA protein; recombinant human BCMA-ECD-Fc; not shown: Fc of the bought fusion protein; Avitag
T8 sequence (looked up): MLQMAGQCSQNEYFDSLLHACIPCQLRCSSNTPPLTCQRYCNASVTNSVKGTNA

[15] = target: T1, human CTLA4 on cells (CHO-K1/hCTLA4; …); assay: FACS, HEK293/hCTLA4 cells
[16] = target: T1, human CTLA4 on cells (CHO-K1/hCTLA4; …); assay: FACS, CHO-K1/hCTLA4 cells (Test 2)
[17] = target: T1, human CTLA4 on cells (CHO-K1/hCTLA4; …); assay: competition FACS: biotinylated B7-1-Fc to CHO-K1/hCTLA4 cells (Test 2)

T2 sequence (P16410 36-161): as the sequence (P16410 36-161 limits assumed) above
T1 sequence (P16410 36-223): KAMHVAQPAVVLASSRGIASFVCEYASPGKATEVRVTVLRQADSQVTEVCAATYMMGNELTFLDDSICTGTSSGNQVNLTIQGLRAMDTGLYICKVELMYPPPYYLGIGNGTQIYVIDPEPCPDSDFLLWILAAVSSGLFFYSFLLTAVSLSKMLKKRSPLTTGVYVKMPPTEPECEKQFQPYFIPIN

| Binder | ADCC killing of 293F-hCTLA4 cells, EC50 [1] | ADCC killing of 293F-hCTLA4 cells, Maximum killing rate (%) [1] | EC50 [2] | Maximum OD450 [2] | EC50 [4] | Maximum MFI [4] | IC50 [6] | Maximum inhibition rate (%) [6] | IC50 [7] | Maximum inhibition rate (%) [7] | EC50 (nM), target cell killing mediated by antibody internalization (HEK293T/hBCMA cells, a-hFc-MMAF) [10] | Maximum killing rate (%), target cell killing mediated by antibody internalization (HEK293T/hBCMA cells, a-hFc-MMAF) [10] | EC50 [11] | Maximum MFI [11] | EC50 [12] | Maximum MFI [12] | EC50 [13] | Maximum MFI [13] | also measured |
| --- | --- | --- | --- | --- | --- | --- | --- | --- | --- | --- | --- | --- | --- | --- | --- | --- | --- | --- | --- |
| PR000300 (bispecific antibody, human IgG1, kappa, PR000070 + VH of PR000184) light: DIQMTQSPSTLSASVGDRVTVTCRASQSIYIWLAWYQQKPGKAPNLLIYKASSLETGVPSRFSGSGSGTEFTLTISSLQPDDFATYYCQQYYGSSRTFGQGTKVEIKRTVAAPSVFIFPPSDEQLKSGTASVVCLLNNFYPREAKVQWKVDNALQSGNSQESVTEQDSKDSTYSLSSTLTLSKADYEKHKVYACEVTHQGLSSPVTKSFNRGEC not shown | 0.008 nM | 23.8% | 0.567 nM | 2.95 OD450 | 2.91 nM | 2620 MFI | 2.09 nM | 98.2% | 6.42 nM | 101% |  |  |  |  |  |  |  |  | EC50 [3]: 0.108 nM; Maximum OD450 [3]: 3.52 OD450; EC50 [5]: 0.884 nM; Maximum MFI [5]: 21000 MFI; IC50 [8]: 0.677 nM; Maximum inhibition rate (%) [8]: 96.6% |
| PR000265, anti-PD-L1 91G3H5H3(D54E), hIgG1(N297A) (antibody) heavy: not shown light: DIQMTQSPSTLSASVGDRVTVTCRASQSIYIWLAWYQQKPGKAPNLLIYKASSLETGVPSRFSGSGSGTEFTLTISSLQPDDFATYYCQQYYGSSRTFGQGTKVEIKRTVAAPSVFIFPPSDEQLKSGTASVVCLLNNFYPREAKVQWKVDNALQSGNSQESVTEQDSKDSTYSLSSTLTLSKADYEKHKVYACEVTHQGLSSPVTKSFNRGEC |  |  |  |  |  |  |  |  |  |  |  |  |  |  |  |  |  |  | EC50 [9]: 0.163 nM; Maximum MFI [9]: 958 MFI |
| PR000943, anti-BCMA HCAb antibody, clone 1005P16A10 (antibody, human IgG1, V domains shown, Heavy-chain-only antibody (HCAb), human IgG1 Fc, no light chain) VH: EVQLVETGGGLIQPGGSLRLSCAASGFPVSSNYMSWVRQAPGKGLEWVSVIFSGGRTYYADSVKGRFTISRDNSKNTLYLQMNSLRAEDTAVYYCARRNWIDGRDAFDIWGQGTMVTVSS |  |  |  |  |  |  |  |  |  |  | 0.492 nM | 78.7% | 4.8 nM | 166000 | 0.153 nM | 70000 | 0.329 nM | 64000 | Kd [14]: 0.162 nM; koff [14]: 1.93e-05 s⁻¹; kon [14]: 119000 M⁻¹ s⁻¹ |
| PR000301 (bispecific antibody, human IgG1, kappa) EVQLVESGGGLIQPGGSLRLSCAVSGFTVSKNYMSWVRQAPGKGLEWVSVVYSGGSKTYADSVKGRFTISRDNSKNTLYLQMNSLRAEDTAVYYCARAVPHSPSSFDIWGQGTMVTVSSKLEPKSSDKTHTPPPPPRTDIQMTQSPSTLSASVGDRVTVTCRASQSIYIWLAWYQQKPGKAPNLLIYKASSLETGVPSRFSGSGSGTEFTLTISSLQPDDFATYYCQQYYGSSRTFGQGTKVEIKRTVAAPSVFIFPPSDEQLKSGTASVVCLLNNFYPREAKVQWKVDNALQSGNSQESVTEQDSKDSTYSLSSTLTLSKADYEKHKVYACEVTHQGLSSPVTKSFNRGEC heavy: not shown | 0.031 nM | 36.6% | 0.35 nM | 2.92 OD450 | 1.94 nM | 2360 MFI | 2.51 nM | 98.3% | 3.21 nM | 99.9% |  |  |  |  |  |  |  |  | EC50 [3]: 0.131 nM; Maximum OD450 [3]: 3.53 OD450; EC50 [5]: 0.918 nM; Maximum MFI [5]: 16600 MFI; IC50 [8]: 0.882 nM; Maximum inhibition rate (%) [8]: 96.2% |
| PR000274, anti-BCMA monoclonal antibody CA8-J6M0 (antibody, human IgG1, kappa, V domains shown, Control antibody; also called Positive control 1; CA8-J6M0 hIgG1) VH: QVQLVQSGAEVKKPGSSVKVSCKASGGTFSNYWMHWVRQAPGQGLEWMGATYRGHSDTYYNQKFKGRVTITADKSTSTAYMELSSLRSEDTAVYYCARGAIYDGYDVLDNWGQGTLVTVSS VL: DIQMTQSPSSLSASVGDRVTITCSASQDISNYLNWYQQKPGKAPKLLIYYTSNLHSGVPSRFSGSGSGTDFTLTISSLQPEDFATYYCQQYRKLPWTFGQGTKLEIKR |  |  |  |  |  |  |  |  |  |  | 2.18 nM | 77.2% | 10.8 nM | 125000 | 4.08 nM | 86500 | 4.56 nM | 116000 |  |
| PR001046, anti-BCMA HCAb antibody, clone 1005P63B7 (antibody, human IgG1, V domains shown, Heavy-chain-only antibody (HCAb), human IgG1 Fc, no light chain) VH: EVQLVETGGGLIQPGGSLRLSCAASGFTVSDNYMTWVRQAPGKGLEWVSVIFSGGNTYYADSVKGRFTISRDNAKNTLYLQMNSLRAEDTALYYCARRNYDDTRGTDVFDIWGQGTMVTVSS |  |  |  |  |  |  |  |  |  |  | 0.571 nM | 71.2% | 1.53 nM | 133000 | 0.213 nM | 63400 | 0.564 nM | 67700 | Kd [14]: 0.0253 nM; koff [14]: 1.07e-05 s⁻¹; kon [14]: 423000 M⁻¹ s⁻¹ |
| PR000184, anti-CTLA4 heavy-chain antibody CL5v3, hIgG1 (antibody, V domains shown, heavy-chain-only antibody (VH-Fc dimer); also called anti-CTLA4 HCAb monoclonal antibody PR000184) VH: EVQLVESGGGLIQPGGSLRLSCAVSGFTVSKNYMSWVRQAPGKGLEWVSVVYSGGSKTYADSVKGRFTISRDNSKNTLYLQMNSLRAEDTAVYYCARAVPHSPSSFDIWGQGTMVTVSS | 0.015 nM | 30.2% | 0.599 nM | 3.01 OD450 | 1.69 nM | 1670 MFI | 2.67 nM | 97.2% | 4.13 nM | 99.7% |  |  |  |  |  |  |  |  | EC50 [15]: 1.15 nM; Maximum MFI [15]: 2260 MFI; EC50 [16]: 4.64 nM; Maximum MFI [16]: 722 MFI; IC50 [17]: 3.01 nM; Maximum inhibition rate (%) [17]: 100% |

Reference: patent publication US20230322953A1 (HARBOUR BIOMED SHANGHAI, published 2023)
